Results on one protein are retold here after paper PMC6949489, “Glutathione peroxidase 8 negatively regulates caspase‐4/11 to protect against colitis” (EMBO Molecular Medicine, 2019).

The series concerns the molecule itself. Kind of series: native gel or EMSA; blue native PAGE (3-12%) and immunoblot; purified caspase-4 (C258S) incubated with or without oxidized GPx8 30 min at 4°C, then with different amounts of LPS 30 min at 37°C; LPS-induced oligomerization. In general terms: A gel shift assay detects complexes by their altered migration in electrophoresis.

B1: FLAG-tagged human caspase-4 (C258S) protease-deficient mutant (natural protein, UniProt P49662 1-377, looked up)
chain: MAEGNHRKKPLKVLESLGKDFLTGVLDNLVEQNVLNWKEEEKKKYYDAKTEDKVRVMADSMQEKQRMAGQMLLQTFFNIDQISPNKKAHPNMEAGPPESGESTDALKLCPHEEFLRLCKERAEEIYPIKERNNRTRLALIICNTEFDHLPPRNGADFDITGMKELLEGLDYSVDVEENLTARDMESALRAFATRPEHKSSDSTFLVLMSHGILEGICGTVHDEKKPDVLLYDTIFQIFNNRNCLSLKDKPKVIIVQASRGANRGELWVRDSPASLEVASSQSSENLEEDAVYKTHVEKDFIAFCSSTPHNVSWRDSTMGSIFITQLITCFQKYSWCCHLEEVFRKVQQSFETPRAKAQMPTIERLSMTRYFYLFPGN
notes: human caspase-4 with the protease-deficient mutation C258S; also called Casp4C258S; source: 293T, transfected, in lysate
Regarding B1, the binding result is recorded as “binds”.
